From patent publication US20050234225A1 (Eli Lilly, published 2005)
Residue numbers refer to the chain shown, from its start.

B1: D2C6 Fab (Fab, V domains shown)
VH: EVQLVQSGGGLVKPGGSLRLSCAASGFTFSSYSMNWVRQAPGKGLEWVSSISSSSSYIYYADSVKGRFTISRDNAKNSLYLQMNSLRAEDTAVYYCARVTDAFDIWGQGTMVTVSS
VL: EIVMTQSPATLSLSPGERATLSCRASQSVSSYLAWYQQKPGQAPRLLIYDSSNRATGIPARFSGSGSGTDFTLTISSLEPEDFATYYCLQHNTFPPTFGQGTKVEIK
notes: Soluble human Fab from E. coli HB2151; also called Hu-2C6 Fab; Hu-2C6
B2: D1H4 Fab (Fab, V domains shown)
VH: B1 VH
VL: QSALTQPASLSGSPGQSITISCAGTTTDLTYYDLVSWYQQHPGQAPKLVIYDGNKRPSGVSNRFSGSKSGNTASLTISGLQAEDEADYYCNSYVSSRFYVFGTGTKVTVL
notes: Soluble human Fab from E. coli HB2151; also called DlH4; Hu-1H4 Fab
B3: D2H2 Fab (Fab, V domains shown)
VH: B1 VH with N77D
VL: DIQLTQSPSSVSASVGDRVTITCRASQGISSRLAWYQQKPGKAPKLLIYAASSLQTGVPSRFSGSGSGTDFTLTISSLQPEDFATYYCQQANRFPPTFGPGTKVDIK
notes: Soluble human Fab from E. coli HB2151; also called Hu-2H2 Fab
B4: D1F7 Fab (Fab, V domains shown)
VH: EVQLVQSGAEVKKPGASVKVSCKASGGTFSSYAISWVRQAPGQGLEWMGGIIPIFGTANYAQKFQGRVTFTADKSTSTAYMELRSLRSDDTAVYYCARGYDYYDSSGVASPFDYWGQGTLVTVSS
VL: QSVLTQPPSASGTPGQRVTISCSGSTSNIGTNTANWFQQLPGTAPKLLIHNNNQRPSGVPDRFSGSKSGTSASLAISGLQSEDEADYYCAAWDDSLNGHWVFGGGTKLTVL
B5: IMC-1121 IgG (antibody, V domains shown)
VH: B1 VH
VL: DIQMTQSPSSVSASIGDRVTITCRASQGIDNWLGWYQQKPGKAPKLLIYDASNLDTGVPSRFSGSGSGTYFTLTISSLQAEDFAVYFCQQAKAFPPTFGGGTKVDIK
B6: IMC-2C6 IgG (antibody, V domains shown)
VH: B1 VH
VL: B1 VL
B7: Hu-1121 Fab (Fab, V domains shown)
VH: B1 VH
VL: B5 VL
notes: see also CLM-00007) with new light chains

How the values were obtained:
cell-surface KDR = cell-surface KDR (human, UniProt P35968 20-1356); assay: cell-based or functional assay
[1] = target: T1, KDR-alkaline phosphatase (AP) soluble fusion protein (human, UniProt P35968 20-764); assay: BIAcore SPR, KDR immobilized
T1 construct: Expressed in NIH 3T3 cells as in Lu et al. 2000; also called KDR-AP; full length KDR-AP; not shown: alkaline phosphatase (AP) fusion partner
Method: The binding kinetics of soluble Fab proteins to KDR were measured by surface plasmon resonance using a BIAcore biosensor (Pharmacia Biosensor). KDR-AP fusion protein was immobilized onto a sensor chip and soluble Fab proteins were injected at concentrations ranging from 1.5 nM to 100 nM. Sensorgrams were obtained at each concentration and were evaluated using a program, BIA Evaluation 2.0, to determine the rate constants kon and koff. Kd was calculated from the ratio of rate constants koff/kon.
Antibody affinity or avidity was determined by BIAcore analysis, as above. The binding kinetics, i.e., the association rate constant (kon) and the dissociation rate constant (koff), of the anti-KDR antibodies were measured and the dissociation constant, Kd, was calculated (Table 4).

[2] = target: T1, KDR-alkaline phosphatase (AP) soluble …; assay: direct binding ELISA: Fab on KDR-coated plate, detected with anti-human Fab-HRP, A450
Method: (§1) In a direct binding assay, various amounts of soluble Fab proteins were added to KDR-coated 96-well Maxi-sorp microtiter plates and incubated at RT for 1 h, after which the plates were washed 3 times with PBST. The plates were then incubated at RT for 1 h with 100 μl of a rabbit anti-human Fab antibody-HRP conjugate (Jackson ImunoResearch Laboratory Inc., West Grove, Pa.). The plates were washed and developed following the procedure described above for the phage ELISA. In a competitive KDR/VEGF blocking assay, various amounts of Fab proteins were mixed with a fixed amount of KDR-AP (100 ng) and incubated at RT for 1 h. The mixtures were then transferred to 96-well microtiter plates precoated with VEGF₁₆₅ (200 ng/well) and incubated at RT for an additional 2 h, after which the plates were washed 5 times and the substrate for AP (p-nitrophenyl phosphate, Sigma) was added. Absorbance at 405 nm was measured to quantify the bound KDR-AP molecules (8).
(§2) Clone D2C6 and D2H2 are more efficient binders, followed by clone D1H4 and D1F7. All four Fabs also block KDR binding to immobilized VEGF (FIG. 2B). […] Only clone D1F7 blocks VEGF from binding to Flk-1 (FIG. 2C), with an IC₅₀ of approximately 15 nM.

[3] = target: T1, KDR-alkaline phosphatase (AP) soluble …; assay: competitive blocking ELISA: Fab pre-incubated with KDR-AP, then binding of KDR-AP to immobilised VEGF165, A405
Method: FIG. 2 depicts binding to KDR, blocking of KDR/VEGF interaction and blocking of Flk-1/VEGF interaction by human anti-KDR Fab fragments. FIG. 2A: Dose-dependent binding of human anti-KDR Fab to immobilized KDR. FIG. 2B: Inhibition of KDR binding to immobilized VEGF by anti-KDR Fab. FIG. 2C: Inhibition of Flk-1 binding to immobilized VEGF by anti-KDR Fab. Various amounts of Fab proteins were incubated with a fixed amount of KDR-AP (2B) or Flk-1-AP (2C) in solution at RT for 1 h.
as §1, §2

[4] = target: T2, Flk-1-AP soluble fusion protein (murine, UniProt P35918 20-762); assay: competitive blocking ELISA: Fab pre-incubated with Flk-1-AP, then binding of Flk-1-AP to immobilised VEGF165, A405
T2 construct: Soluble fusion protein from NIH 3T3 cells; also called fetal liver kinase 1; not shown: alkaline phosphatase (AP) fusion partner

[5] = target: T1, KDR-alkaline phosphatase (AP) soluble …; assay: BIAcore SPR, KDR immobilized; remark: listed apart in the source
[6] = target: T1, KDR-alkaline phosphatase (AP) soluble …; assay: direct binding ELISA: antibody on KDR-coated plate, detected with anti-human IgG Fc-HRP, A450
Method: (§3) FIG. 6 depicts binding to KDR and blocking of KDR/VEGF interaction by human anti-KDR antibodies. FIG. 6A: Dose-dependent binding of anti-KDR to immobilized KDR. Various amounts of antibodies were incubated at RT for 1 h in 96-well plates coated with KDR FIG. 6B: Inhibition of binding of KDR to immobilized VEGF by human anti-KDR antibodies. Various amounts of the antibodies were incubated with a fixed amount of KDR-AP in solution at RT for 1 hr.
Anti-KDR antibodies were assessed for KDR binding and blocking of VEGF binding. In the direct binding assay, various amounts of antibodies were added to KDR-coated 96-well Maxi-sorp microtiter plates (Nunc, Roskilde, Denmark) and incubated at room temperature (RT) for 1 h, after which the plates were washed 3 times with PBS containing 0.1% Tween-20. The plates were then incubated at RT for 1 h with 100 μl of a rabbit anti-human IgG Fc-HRP conjugate (Jackson ImmunoResearch Laboratory Inc., West Grove, Pa.). The plates were washed and developed as above.

[7] = target: T1, KDR-alkaline phosphatase (AP) soluble …; assay: competitive blocking ELISA: antibody pre-incubated with KDR-AP, then binding of KDR-AP to immobilised VEGF165, A405
Method: as §3
The efficacy of the anti-KDR antibodies for blocking KDR from binding to VEGF was measured with a competition assay. Various amounts of antibodies were mixed with a fixed amount of KDR-AP (100 ng) and incubated at RT for 1 h. The mixtures were then transferred to 96-well microtiter plates precoated with VEGF₁₆₅ (200 ng/well) and incubated at RT for an additional 2 h, after which the plates were washed 5 times and the substrate for AP (p-nitrophenyl phosphate, Sigma) was added, followed by reading the absorbance at 405 nm to quantify the bound KDR-AP molecules. […] The IC₅₀ is approximately 0.8 to 1.0 nM for all three antibodies.

T1 sequence (P35968 20-764): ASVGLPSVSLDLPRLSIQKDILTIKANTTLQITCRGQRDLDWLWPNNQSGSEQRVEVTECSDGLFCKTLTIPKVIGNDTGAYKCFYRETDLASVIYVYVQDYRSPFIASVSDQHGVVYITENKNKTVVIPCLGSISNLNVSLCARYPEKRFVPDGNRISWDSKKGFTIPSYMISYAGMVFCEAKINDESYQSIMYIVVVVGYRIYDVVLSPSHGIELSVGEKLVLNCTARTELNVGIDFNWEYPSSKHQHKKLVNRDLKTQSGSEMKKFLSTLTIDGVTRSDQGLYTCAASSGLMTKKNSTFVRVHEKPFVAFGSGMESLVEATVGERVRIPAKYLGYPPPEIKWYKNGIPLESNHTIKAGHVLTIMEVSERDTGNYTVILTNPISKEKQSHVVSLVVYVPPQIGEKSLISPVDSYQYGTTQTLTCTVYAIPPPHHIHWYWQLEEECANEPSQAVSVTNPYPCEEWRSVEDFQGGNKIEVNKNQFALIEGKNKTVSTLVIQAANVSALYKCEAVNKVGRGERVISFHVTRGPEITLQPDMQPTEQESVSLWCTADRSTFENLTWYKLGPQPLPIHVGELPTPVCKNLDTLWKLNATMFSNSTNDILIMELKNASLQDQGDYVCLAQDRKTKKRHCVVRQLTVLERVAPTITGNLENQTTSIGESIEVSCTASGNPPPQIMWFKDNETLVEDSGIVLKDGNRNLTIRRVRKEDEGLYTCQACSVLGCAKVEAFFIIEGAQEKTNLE
Chain of cell-surface KDR (P35968 20-1356): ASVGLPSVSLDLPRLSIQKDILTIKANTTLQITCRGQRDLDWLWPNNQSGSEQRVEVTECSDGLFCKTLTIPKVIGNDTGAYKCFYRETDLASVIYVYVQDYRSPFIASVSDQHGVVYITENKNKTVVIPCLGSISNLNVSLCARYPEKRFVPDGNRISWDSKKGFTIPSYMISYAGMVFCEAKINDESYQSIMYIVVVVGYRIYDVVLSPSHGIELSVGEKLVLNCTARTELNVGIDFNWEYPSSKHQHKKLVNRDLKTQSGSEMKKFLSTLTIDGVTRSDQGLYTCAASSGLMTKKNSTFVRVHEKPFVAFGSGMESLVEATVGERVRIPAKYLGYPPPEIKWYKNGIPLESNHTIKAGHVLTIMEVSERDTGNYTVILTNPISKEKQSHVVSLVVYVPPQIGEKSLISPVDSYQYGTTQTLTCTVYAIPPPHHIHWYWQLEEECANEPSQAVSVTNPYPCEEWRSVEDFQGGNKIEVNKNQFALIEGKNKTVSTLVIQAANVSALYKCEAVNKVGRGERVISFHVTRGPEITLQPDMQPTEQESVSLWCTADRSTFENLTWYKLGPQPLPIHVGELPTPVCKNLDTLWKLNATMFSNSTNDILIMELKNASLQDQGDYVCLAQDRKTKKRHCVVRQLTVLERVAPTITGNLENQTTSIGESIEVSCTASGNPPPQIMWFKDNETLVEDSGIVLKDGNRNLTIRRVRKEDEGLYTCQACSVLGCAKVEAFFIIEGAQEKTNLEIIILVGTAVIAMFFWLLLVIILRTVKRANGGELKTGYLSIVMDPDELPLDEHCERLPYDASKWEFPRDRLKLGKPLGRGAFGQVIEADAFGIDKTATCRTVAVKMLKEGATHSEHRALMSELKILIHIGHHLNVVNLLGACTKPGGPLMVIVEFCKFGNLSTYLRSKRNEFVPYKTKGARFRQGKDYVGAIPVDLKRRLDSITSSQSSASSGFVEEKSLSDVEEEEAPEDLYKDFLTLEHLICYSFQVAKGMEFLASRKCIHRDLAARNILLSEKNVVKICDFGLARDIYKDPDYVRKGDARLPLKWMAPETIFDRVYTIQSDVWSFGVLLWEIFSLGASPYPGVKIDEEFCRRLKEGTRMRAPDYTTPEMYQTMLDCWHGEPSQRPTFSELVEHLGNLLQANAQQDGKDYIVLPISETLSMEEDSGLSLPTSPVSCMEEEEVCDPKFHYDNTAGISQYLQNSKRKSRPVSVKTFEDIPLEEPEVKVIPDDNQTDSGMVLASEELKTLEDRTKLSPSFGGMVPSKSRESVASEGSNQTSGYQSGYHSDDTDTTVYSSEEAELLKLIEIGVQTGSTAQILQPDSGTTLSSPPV
T2 sequence (P35918 20-762): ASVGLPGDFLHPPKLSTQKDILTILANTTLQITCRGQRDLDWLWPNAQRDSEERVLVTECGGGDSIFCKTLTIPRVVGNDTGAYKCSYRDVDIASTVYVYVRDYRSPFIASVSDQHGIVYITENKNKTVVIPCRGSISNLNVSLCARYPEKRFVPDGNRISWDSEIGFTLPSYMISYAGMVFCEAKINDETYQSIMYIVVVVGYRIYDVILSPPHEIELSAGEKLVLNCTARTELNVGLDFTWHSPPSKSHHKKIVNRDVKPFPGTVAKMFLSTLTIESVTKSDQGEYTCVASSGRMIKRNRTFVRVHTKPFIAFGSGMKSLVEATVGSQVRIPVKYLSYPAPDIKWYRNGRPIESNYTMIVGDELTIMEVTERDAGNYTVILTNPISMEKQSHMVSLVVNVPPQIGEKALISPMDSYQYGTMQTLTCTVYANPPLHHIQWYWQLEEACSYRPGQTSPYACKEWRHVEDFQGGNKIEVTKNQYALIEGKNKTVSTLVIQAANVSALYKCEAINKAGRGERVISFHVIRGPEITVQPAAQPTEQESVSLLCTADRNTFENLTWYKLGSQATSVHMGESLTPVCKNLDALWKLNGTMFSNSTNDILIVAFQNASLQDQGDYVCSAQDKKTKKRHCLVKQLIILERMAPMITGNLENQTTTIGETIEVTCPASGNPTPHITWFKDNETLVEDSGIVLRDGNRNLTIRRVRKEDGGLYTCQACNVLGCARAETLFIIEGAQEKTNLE

Binder | EC50 of inhibition of VEGF-stimulated [3H]-TdR incorporation in HUVEC (cell-surface KDR) [nM] | Kd [1] [nM] | koff [1] [s⁻¹] | kon [1] [M⁻¹ s⁻¹] | EC50 (read off the curve) [2] [nM] | IC50 (read off the curve) [3] [nM] | binding result [4] | fold increase in overall binding avidity against Hu-1121 Fab [5] [fold] | EC50 (read off the curve) [6] [nM] | IC50 (read off the curve) [7] [nM] | fold change of Kd against the monovalent Hu-2C6 Fab [5] [fold] | fold improvement in Kd against Hu-2C6 [5] [fold]
B1 | ~0.5 | 3.6 | 0.00055 | 171000 | ~0.7 | ~3 | no binding (tested: about 60 nM) |  |  |  |  | 
B2 | ~0.5 |  |  |  | ~1 | ~2 | no binding (tested: about 60 nM) |  |  |  |  | 
B3 | ~0.8 |  |  |  | ~0.7 | ~2 | no binding (tested: about 60 nM) |  |  |  |  | 
B4 | ~15 |  |  |  |  |  |  |  |  |  |  | 
B5 |  | 0.05 | 2.5e-05 | 479000 |  |  |  | ~2 | ~0.3 | ~0.8 |  | 
B6 |  | 0.2 | 4.3e-05 | 212000 |  |  |  |  | ~0.4 | ~0.7 | ~18 | 
B7 |  | 0.11 | 3.1e-05 | 296000 |  |  |  |  |  |  |  | 33
